Tests used:
Assay type in all cases: cell-based
Orai1 [1] = biological target: T1, Orai1 (Homo sapiens, UniProt Q96D31); assay: Whole-cell patch clamp recording of ICRAC in transfected HEK 293 cells; design: expressed in transfected cells; host or cells: HEK 293
Protocol: Electrophysiology. HEK 293 cells were transfected 8-24 h prior to electrophysiology experiments with STIM1- and Orai1-derived constructs in a 1:1 mass ratio using Lipofectamine 2000. […] ICRAC in cells cultured without LaCl3 was similar to that in cells cultured with LaCl3, but most cells without LaCl3 died soon after break-in.
Currents were recorded using standard whole-cell patch clamp techniques (Prakriya and Lewis, 2001). Pipettes of resistance 2-5 MΩ were filled with an internal solution containing (in mM) 150 Cs aspartate, 8 MgCl2, 10 EGTA, and 10 HEPES (pH 7.2 with CsOH). Currents were sampled at 5 kHz and filtered at 2 kHz, and all voltages were corrected for the junction potential of the pipette solution relative to Ringer's in the bath (−13 mV).
Patch-clamp Experiments. Pipette-membrane seals were formed in 2 mM Ca^2+ Ringer's solution. After break-in to the whole-cell configuration, voltage stimuli consisting of a 100-ms step to −100 mV followed by a 100-ms ramp from −100 to +100 mV were delivered every 5 s from the holding potential of +30 mV. After the currents reached a steady level (˜300 s for wild-type STIM1), the external solution was changed via a multibarrel local perfusion pipette to a high-Ca^2+ Ringer's containing (in mM) 130 NaCl, 4.5 KCl, 20 CaCl2, 1 MgCl2, 10 D-glucose, and 5 HEPES (pH 7.4 with NaOH). All data were leak-corrected using the current elicited in 20 mM Ca^2+ Ringer's+10 μM LaCl3 at the end of the each experiment. LaCl3 and 2-APB were added directly to parent solutions on the day of the experiment from 10 mM and 100 mM stocks in H2O and DMSO, respectively.
As a definitive test for CRAC channel activation, we conducted whole-cell patch clamp recordings from HEK 293 cells transiently transfected with myc-Orai1 and either YFP-STIM1 or YFP-CAD. In cells expressing full length YFP-STIM1, ICRAC appeared over several minutes following break-in, consistent with the typical slow activation seen in response to passive store depletion (FIG. 2D). […] In contrast, inward current was present from the moment of break-in in cells expressing YFP-CAD (FIG. 2E). This current was identified as ICRAC based on its dependence on extracellular Ca^2+, inward rectification, sequential enhancement and inhibition by 2-APB, and inhibition by La^3+ (FIG. 2E and FIG. 10 C, D). ICRAC was not observed at break-in in HEK 293 cells transfected with YFP or YFP-CAD in the absence of Orai1 (FIG. 2F), consistent with the low level of endogenous STIM1 and Orai1 in these cells. […] Inactivation was restored by addition of STIM1 residues carboxy-terminal to CAD.

Orai1 [2] = biological target: T1, Orai1; assay: Puncta formation of STIM1 variants by confocal microscopy in HEK 293 cells; design: expressed in transfected cells; host or cells: HEK 293; details: coexpressed with eGFP-Orai1, TG
Protocol: (§1) Confocal Microscopy. 6 h after transfection, HEK 293 cells were plated onto sterilized coverslips coated with poly-D-lysine and maintained in complete DMEM for an additional 12-18 h before imaging in Ringer's solution containing (in mM): 155 NaCl, 4.5 KCl, 2 CaCl2, 1 MgCl2, 10 D-glucose, and 5 Na-Hepes, pH 7.4. To deplete stores, cells were treated with 1 μM TG in Ca2+-free Ringer's (prepared by substituting 2 mM MgCl2 and 1 mM EGTA for CaCl2) for 10 min. eGFP and mCherry were excited simultaneously at 488 and 594 nm, respectively, on a Leica SP2 AOBS inverted confocal microscope equipped with a PL APO 100×/NA 1.4 oil immersion objective. Fluorescence emissions were collected at 615-840 nm (mCherry) and 510-570 nm (eGFP). All experiments were performed at 22-25° C.
Quantitation of STIM1 and Orai1 Recruitment into Puncta. Colocalization of eGFP-Orai1 and mCh-STIM1 variants was analyzed from background-corrected confocal image pairs acquired before and after store depletion. Puncta have two defining characteristics: (1) because they are sites of accumulation, STIM1 and Orai1 fluorescence intensities in puncta are greater than the respective mean intensities measured across the entire cell, and (2) because STIM1 and Orai1 co-localize in puncta, their fluorescence covariance is high. For each STIM1/Orai1 image pair, we computed the covariance of each pixel as (Si−s) (Oi−o), where Si and Oi are the STIM1 and Orai1 fluorescence of pixel i, and s and o are the mean STIM1 and Orai1 fluorescence of the entire cell. A threshold criterion for puncta was set using the pre-depletion image pair. The mean and s.d. of the covariance values were calculated from pixels for which both Si>s and Oi>o, and a covariance threshold was set equal to the mean+2×s.d. of this pre-depletion condition. Binary masks were applied to the pre- and post-depletion image pairs to isolate pixels for which Si>s and Oi>o and whose covariance exceeds the pre-depletion threshold. […] Integrated STIM1 or Orai1 puncta intensity was calculated from the masked images and expressed as a fraction of the total fluorescence intensity in the unmasked image. […]
The Role of CAD in Orai1 Binding and Activation by STIM1. […] To address this, we measured the ability of mCherry-tagged STIM1 variants containing CAD mutations to co-cluster with eGFP-Orai1 and activate Ca^2+ entry in response to TG (FIG. 7). STIM1-Orai1 colocalization was quantified as the fraction of total STIM1 and Orai1 fluorescence that was recruited to regions of high fluorescence covariance (FIG. 13), while Ca^2+ influx was measured with single cell Ca^2+ imaging. For each set of experiments we measured mCherry and GFP fluorescence to confirm that differences in the activity of the various STIM1 constructs were not due to differences in expression level (FIG. 14).

Orai1 [3] = assay: as above; details: expressed alone in HEK 293 cells
Protocol: as §1
Quantitation of STIM1 and Orai1 Recruitment into Puncta. Colocalization of eGFP-Orai1 and mCh-STIM1 variants was analyzed from background-corrected confocal image pairs acquired before and after store depletion. Puncta have two defining characteristics: (1) because they are sites of accumulation, STIM1 and Orai1 fluorescence intensities in puncta are greater than the respective mean intensities measured across the entire cell, and (2) because STIM1 and Orai1 co-localize in puncta, their fluorescence covariance is high. […]

Orai1 [4] = biological target: T1, Orai1; assay: Store-operated Ca2+ entry by STIM1 variants, single cell Ca2+ imaging; design: expressed in transfected cells; host or cells: HEK 293; details: coexpressed with eGFP-Orai1, TG
Protocol: For FIG. 7, cells were loaded as above with 2 μM fura-2/AM for 25 min. Ratiometric Ca2+ imaging was performed with 350 and 380 nm excitation in 2 mM Ca2+ Ringer's solution on an Axiovert 35 inverted microscope using a VideoProbe imaging system as described (Bautista et al., 2002). mCherry-positive cells were identified using a 540±12 nm excitation and a 580LP emission filter (Chroma).
The Role of CAD in Orai1 Binding and Activation by STIM1. A key question is whether CAD is responsible for the clustering and activation of CRAC channels by full-length STIM1 following store depletion. To address this, we measured the ability of mCherry-tagged STIM1 variants containing CAD mutations to co-cluster with eGFP-Orai1 and activate Ca^2+ entry in response to TG (FIG. 7). STIM1-Orai1 colocalization was quantified as the fraction of total STIM1 and Orai1 fluorescence that was recruited to regions of high fluorescence covariance (FIG. 13), while Ca^2+ influx was measured with single cell Ca^2+ imaging. For each set of experiments we measured mCherry and GFP fluorescence to confirm that differences in the activity of the various STIM1 constructs were not due to differences in expression level (FIG. 14).

Orai1 [5] = biological target: T1, Orai1; assay: Intracellular localization of YFP-CAD in HEK 293 cells; design: expressed in transfected cells; host or cells: HEK 293; details: with myc-Orai1
Protocol: as §1
CAD Associates with Orai1 in vivo and in vitro. Because cytosolic CAD is a potent activator of Orai1 channels and is not associated with the ER, we hypothesized that CAD binds to Orai1. To test this idea, we first expressed YFP-CAD with or without myc-Orai1 in HEK 293 cells and examined its intracellular localization. […] GFP-myc-Orai1 was detected in the immunoprecipitates from cells co-expressing CAD and Orai1 but not from cells expressing CAD or Orai1 alone (FIG. 3B).

T1 sequence (Q96D31 whole entry): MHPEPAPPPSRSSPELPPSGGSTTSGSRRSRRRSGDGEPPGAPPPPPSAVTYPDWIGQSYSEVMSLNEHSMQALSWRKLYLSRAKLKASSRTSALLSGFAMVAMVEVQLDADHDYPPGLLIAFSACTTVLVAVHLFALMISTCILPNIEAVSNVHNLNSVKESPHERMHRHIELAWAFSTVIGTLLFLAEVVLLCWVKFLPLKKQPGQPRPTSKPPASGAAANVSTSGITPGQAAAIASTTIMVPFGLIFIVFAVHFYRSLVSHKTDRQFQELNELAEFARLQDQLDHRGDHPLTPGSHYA

| ICRAC after store depletion (Orai1 [1]; HEK 293 cells coexpressing STIM1 variant and Orai1) | puncta formation with Orai1 after store depletion (Orai1 [2]) | Ca2+ entry (SOCE) after store depletion (Orai1 [4]) | constitutive ICRAC (Orai1 [1]; HEK 293 cells cotransfected with construct and myc-Orai1, from break-in) | Substance | puncta formation after store depletion (Orai1 [3]) | localization on coexpression of Orai1 (Orai1 [5]) |
| --- | --- | --- | --- | --- | --- | --- |
| activated ICRAC | colocalized in puncta | – | – | STIM1-DK: STIM1 lacking the polybasic C-terminal domain (aa 672-685) | failed to form puncta | – |
| – | formed puncta with Orai1 | activated Ca^2+ entry | – | STIM11-448: STIM1 truncated from the C-terminus to the end of the CAD | – | – |
| – | – | – | constitutively active | YFP-CAD: YFP-tagged CAD expressed in HEK 293 cells | – | dramatic recruitment of YFP-CAD to the plasma membrane |

| Substance | ICRAC after store depletion (Orai1 [1]; HEK 293 cells coexpressing STIM1 variant and Orai1) | puncta formation with Orai1 after store depletion (Orai1 [2]) | Ca2+ entry (SOCE) after store depletion (Orai1 [4]) | constitutive ICRAC (Orai1 [1]; HEK 293 cells cotransfected with construct and myc-Orai1, from break-in) | puncta formation after store depletion (Orai1 [3]) | localization on coexpression of Orai1 (Orai1 [5]) |
| --- | --- | --- | --- | --- | --- | --- |
| STIM11-440: STIM1 1-448 with the final 8 aa deleted | – | retained the ability to form puncta and cluster Orai1 | failed to activate SOCE | – | – | – |

Reference: patent US20120165265A1, “Calcium Signaling Modulators Involving STIM and ORAI Proteins” (priority 2009, published 2012)
